From patent US20250027068
Positions count from the first letter of the chain named.

B1: PRT-602 (protein)
chain: MANQEIRYSEVTPYHITSVWTKGVTPPANFTQGEDVFHAPYVANQGWYDITKTFNGKDDLLCGAATAGNMLHWWFDQNKDQIERYLEEHPEKQKINFNGEQMFDVKEAIDTKDSQTDSKLFEYFKEKAFPYLSTKHLGVFPDHVIDMFINGYRLSLTNHGPTPVKEGSKDPRGGIFDAVFTRGDQSKLLTSRHDFKEKTLKEISDLIKQELTEGKALGLSHTYANVRINHVINLWGADFDSEGNLKAIYVTDSDSNASIGMKKYYVGVNSAGKVAISAKEIEEDNIGAQVLGLFTLSTGQDIWNQTNLEHHHHHH
B2: PRT-525 (protein)
chain: MITSVWTKGVTPPAKFTQGEDVFHAPYVANQGWYDITKTFNGKDNLLCGAATAGNMLHWWFDQNKEEIEAYLKKHPEKQKIIFNNQELFDLKAVINTKDSQTNSALFNYFKDKAFPNLSARRLGVFPDLVLDMFINGYYLNVYKTQTTDVNRTYQTKDRRGGIFDAVFTRGVQSKLLTERHDLKNKTLKEISDLIKQELTEGKALGLSHTYANVRINHVINLWGADFDSNGNLEAIYVTDSDTNASIGMKKYFVGVNSAGKVAISAKEIKEDNIGAQVLGLFTLSTGQDIWNQTNLEHHHHHH
B3: PRT-522 (protein)
chain: B2 chain with A14T, K15D, T17I, Q18K, V28K, N30G, L183F, N185E
B4: PRT-477 (protein)
chain: MVTSVWTKGVTPPTNFTYGEDVLHAPYVANQGWYDITKTFNGKDDLLCGAATAGNMLHWWFDQNKEQIENYLKKHPEKQKINFNGEQMFDVKEAIDTKDSQLDSKLFEYFKEKAFPYLSTKHLGVFPDHVIDMFINGYRLSLTNHGPTPVKRGSKDPRGGIFDAVFTRGDQSKLLTNRHDLKNKTLKEISDLIKQELTEGKALGISHTYANVRINHVINLWGADFDAEGNLEAIYVTDSDSNASIGMKKYFVGVNSNGKVAISAKEIEEDNIGAQVLGLFTLSTGQDIWNQTNLEHHHHHH
B5: PRT-434 (protein)
chain: MSQTEDSESLQRLRDIEDFQAEKKKQNVVYTKWLDGVDVKDHDFRKIVDGNIAYYATPLLNGRGFYDINKDFNRDSDKCAAAVAANMFHYWLDRNRDNVDRFLRQNPEKHGIIELPDGQLKLSDFLNTYESDDGYRDKSKLFDFISNNFNGPVWTDKLLDNYINGYAYNYKYGRTIEDPTKNTSKINFFKEVFNEKILTNNHSIRNQNEFSVLLSEALYTGKAIGLSYGPAGLRHGLGHIISVWGADLDADGNVVAIYVTDSDDKKLTIGDERVGLKRYKISTDDEGRLRLTAYEETHNTGGQIRGLWTLDTGKQAWADYFDKTEQTGTDQAEQ
B6: PRT-486 (protein)
chain: MVTSVWTKGVTPPTDFIKGEDVFHAPYKAGQGWYDITKTFNGKDNLLCGAATAGNMLHWWFDQNKDQIERYLKEHPEKQKIIFNNQELFDLKAAIDTKDSQTDSKLFEYFKEKAFPYLSTKHLGVFPDHVLDMFINGYRLSLTNHGPTPVKEGSKDKRGGIFDAVFTRGVQSKLLTSRHDFKEKTLKEISDLIKQELTEGKALGLSHTYANVRINHVINLWGADFDSEGNLKAIYVTDSDTNASIGMKKYFVGVNSAGKVAISAKEIKEDNIGAQVLGLFTLSTGQDIWNQTNLEHHHHHH
B7: PRT-479 (protein)
chain: MITSVWTKGVTPPTDFIYGEDVLHAPYKAGQGWYDITKAFDGGDDLLCGAATAGNMLHWWFDQNKEQIENYLKKHPEKQKINFNGEQMFDVKEAIDTKDSQTNSELFNYFKEKAFPYLSTKHLGVFPDHVIDMFINGYRLSLTNHGPTPVKRQEKDPRGGIFDAVFGRGDQTKLLTNRHDLKNKTLNEISQLIKQELTEGKALGISHTYANVRINHVINLWGADFDAEGNLEAIYVTDSDSNASIGMKKYFVGVNSNGKVAISAKEIEEDNIGAQVLGLFTLSTGQKIWNKTNLEHHHHHH
B8: PRT-467 (protein)
chain: B7 chain with Y18K, L23F, E66D, N70R, K74E, I131L, N177S, I205L, N257A, E268K
B9: PRT-598 (protein)
chain: MANQEIRYSEETPSTITSVWTKGVTPPTDFIQNEDVLHAPYIANQGWYDITKTFNGKDDLLCGAATAGNMLHWWFDQNKEQIENYLKKHPEKQKINFNGEQMFDVKEAIDTKDSQTDSALFEYFKDKAFPYLSTKHLGVFPDHVIDMFINGYRLSLTNHGPTPVKRGTKDPRGGIFDAVFTRGDQSKLLTSRHDFKEKTLNEISDLIKQELTEGKALGLSHTYANVRINHVINLWGADFNAEGNLEAIYVTDSDSNASIGMKKYFVGVNSAGKVAISAKEIEGDNIGAQVLGLFTLSTGQDIWNQTNLEHHHHHH
B10: PRT-504 (protein)
chain: MITSVWTKGVTPPTDFIKGEDVFHAPYKAGQGWYDITKAFDGGDDLLCGAATAGNMLHWWFDQNKEYIEAYLKKHPEKQKIMFGDQELLDVRKAINTKGSQKNSELFNYFRDKAFPNLSARRLGVMPDLVLDMFINGYYLNVTKTQTTDVNRTYQEKDKRGGIFDAVFTRGDQSKLLTSRHDLKNKGLNEISQLIKQELTEGKALGLSHTYANVRINHVINLWGADFDADGNLEAIYVTDSDSNASIGMKKYFVGVNSAGKVAISAKEIKEDNIGAQVLGLFTLSTGQDIWNQTNLEHHHHHH

These proteins were tested against pooled human IgG (human IgG1, 2, 3 and 4).

Row | Protein | Enzyme Activity Endpoint Assay (purified): Fab'2 | Enzyme Activity Endpoint Assay (purified): Fc | Enzyme Activity Endpoint Assay (purified): IgG | Enzyme Activity Endpoint Assay (purified): scIgG | Enzyme Activity Endpoint Assay: Fab′2 | Enzyme Activity Endpoint Assay: Fc | Enzyme Activity Endpoint Assay: IgG | Enzyme Activity Endpoint Assay: scIgG | Enzyme Activity Endpoint Assay (purified): Fab′2
1 | B1 | 543 ng/µL | 375 ng/µL | 0 ng/µL | 212 ng/µL | 543 ng/µL | 375 ng/µL | 0 ng/µL | 212 ng/µL | –
2 | B2 | – | – | – | – | 1340 ng/µL | 386 ng/µL | 0 ng/µL | 0 ng/µL | –
3 | B3 | – | – | – | – | 736 ng/µL | 253 ng/µL | 0 ng/µL | 0 ng/µL | –
4 | B4 | – | – | – | – | 543 ng/µL | 277 ng/µL | 0 ng/µL | 224 ng/µL | –
5 | B5 | – | 314 ng/µL | 0 ng/µL | 234 ng/µL | 567 ng/µL | 314 ng/µL | 0 ng/µL | 234 ng/µL | 567 ng/µL
6 | B6 | – | – | – | – | 145 ng/µL | 210 ng/µL | 107 ng/µL | 627 ng/µL | –
7 | B7 | – | – | – | – | 1340 ng/µL | 481 ng/µL | 0 ng/µL | 0 ng/µL | –
8 | B8 | – | – | – | – | 685 ng/µL | 374 ng/µL | 57 ng/µL | 375 ng/µL | –
9 | B9 | 567 ng/µL | 172 ng/µL | 0 ng/µL | 213 ng/µL | 567 ng/µL | 172 ng/µL | 0 ng/µL | 213 ng/µL | –
10 | B10 | – | – | – | – | 1310 ng/µL | 442 ng/µL | 0 ng/µL | 0 ng/µL | –
